Holding throughout (type): cell-based, human
The subject of experiment [1] is JY cells (LFA-1) binding to ICAM-R/IgG. The experiment can be described thus: JY cell binding to plate-bound ICAM-R/IgG chimeras. The note with it: chimera coated at 10 μg/ml. How it is done:
The binding of the lymphoblastoid cell line JY, which expresses LFA-1, to wild type ICAM-R/IgG chimera was examined in the presence and absence of LFA-1 specific antibodies or antibodies specific for either domain 1 or 2 of ICAM-R. ICAM-R chimeras were diluted to 10 μg/ml in 0.1M Na-carbonate/bicarbonate buffer pH 9.6 and used to coat triplicate wells (50 μl/well) of an Immulon 4 96-well plate (Dynatech) overnight at 4° C. Wells were washed three times in PBS and blocked with 1% BSA (in PBS) for 1 hour at 37° C. JY cells were labeled with the fluorescent dye Calcein (Moleculat Probes, Eugene, Oreg.) at 8 μg/ml at 37° C. in serum free RPMI for 20 minutes. Cells were washed with RPMI and resuspended in binding buffer (0.2% HSA in RPMI. Approximately 1×10^5 cells were added to each well containing the binding buffer with or without antibody (20 μg/ml of ICR-2.1, ICR-1.1, ICR-3.1, ICR-5.1, ICR-7.1, ICR-8.1, ICR-4.2, ICR-6.2, ICR-9.2, TS1/22 or 60.3) so that the final volume was 0.35 ml. Plates were incubated at 37° C. in the dark for 45 minutes and input fluorescence was quantitated with a fluorescence reader (Millipore) in a 96-well format. Unbound cells were removed by inverting the plate in 0.1% BSA in PBS for 20 minutes. Bound cells were quantitated by measuring the remaining fluorescence and presented as percent input minus background binding to wells coated with BSA alone.

Experiment [2] relates to Neutrophil binding to ICAM-R E37/A. The experiment can be described thus: Neutrophil adhesion. On the procedure: (§1) Binding of HL-60 cells, neutrophils, and COS cells expressing. CD11b to the chimeric proteins was assayed as follows. The chimeric fusion proteins were diluted to 20 μg/ml in 0.1 M Na-carbonate/bicarbonate buffer (pH 9.6) and 50 μl was used to coat each well (in triplicate) of an Immulon 4 96-well plate (Dynatech). The plates were incubated overnight at 4° C. and washed three times in PBS. Wells were blocked with 1% human serum albumin (HSA) for one hour at 37° C. and washed three times in PBS. Two hundred μl of RPMI+0.25% HSA (with/without phorbol ester at 10 ng/ml, with/without blocking mAb at 15 μg/ml) was added to each well. ICAM-R antibodies used were ICR-1.1, ICR-8.1, ICR-4.2, ICR-6.2, ICR-9.2, and ICR-19.3. […] The adherent cells were quantified by staining with crystal violet (1% solution in 10% ethanol), washing with water and eluting the dye with 66% ethanol in water and measuring the absorbance at 570 nm. In each experiment percent cells bound was calculated using the absorbency values obtained from the CD18 mAb coated well as 100%. […]
This motif in domain 1 of ICAM-1 is essential for CD11a but not CD11b binding. Consequently, the effect of the alanine substitution at ICAM-R E37 (E37/A) on CD11b binding was evaluated.

The subject of experiment [3] is Neutrophil binding to ICAM-R/His. The experiment can be described thus: Neutrophil adhesion. How it is done:
as §1, with “ICR-19.3. CD11a blocking antibody TS1/22 (ATCC HB202) and CD11b blocking antibodies 44AACB (ATCC HB249) and LM2/1 (ATCC HB204) were also used as well as monoclonal antibodies IC/A4.1 to CD49d (α4) and 22F12C to CD18, both of which were generated using standard hybridoma techniques.” for “ICR-19.3.”

The subject of experiment [4] is neutrophil binding to ICAM-2. Briefly: Neutrophil adhesion. How it is done:
as §1, with “ICR-19.3. CD11a blocking antibody TS1/22 (ATCC HB202) and CD11b blocking antibodies 44AACB (ATCC HB249) and LM2/1 (ATCC HB204) were also used as well as monoclonal antibodies IC/A4.1 to CD49d (α4) and 22F12C to CD18, both of which were generated using standard hybridoma techniques.” for “ICR-19.3.”

B1: ICAM-R E37/A: ICAM-R/IgG chimera with alanine substitution at E37 (protein)
chain: QEFLLRVEPQNPVLSAGGSLFVNCSTDCPSSEKIALATSLSKELVASGMGWAAFNLSNVTGNSRILCSVYCNGSQITGSSNITVYGLPERVELAPLPPWQPVGQNFTLRCQVEGGSPRTSLTVVLLRWEEELSRQPAVEEPAEVTATVLASRDDHGAPFSCRTELDMQPQGLGLFVNTSAPRQLRTFVLPVTPPRLVAPRFLEVETSWPVDCTLDGLFPASEAQVYLALGDQMLNATVMNHGDTLTATATATARADQEGAREIVCNVTLGGERREARENLTVFSFLGPIVNLSEPTAHEGSTVTVSCMAGARVQVTLDGVPAAAPGQTAQLQLNATESDDGRSFFCSATLEVDGEFLHRNSSVQLRVLYGPKIDRATCPQHLKWKDKTRHVLQCQARGNPYPELRCLKEGSSREVPVGIPFFVNVTHNGTYQCQASSSRGKYTLVVVMDIEAFSSH
modifications: left off: a dimerising Fc or GST
B1: the “LFA-1 mediated JY cell adhesion to variant ICAM-R/IgG chimera” value in experiment [1] was “completely abrogated adhesion of JY cells”. Moreover, the “neutrophil binding relative to wild type ICAM-R” value in experiment [2] is “binding was reduced relative to wild type ICAM-R”.

B2: ICAM-R/His: histidine-tagged ICAM-R extracellular region fusion protein (protein)
chain: QEFLLRVEPQNPVLSAGGSLFVNCSTDCPSSEKIALETSLSKELVASGMGWAAFNLSNVTGNSRILCSVYCNGSQITGSSNITVYGLPERVELAPLPPWQPVGQNFTLRCQVEGGSPRTSLTVVLLRWEEELSRQPAVEEPAEVTATVLASRDDHGAPFSCRTELDMQPQGLGLFVNTSAPRQLRTFVLPVTPPRLVAPRFLEVETSWPVDCTLDGLFPASEAQVYLALGDQMLNATVMNHGDTLTATATATARADQEGAREIVCNVTLGGERREARENLTVFSFLGPIVNLSEPTAHEGSTVTVSCMAGARVQVTLDGVPAAAPGQTAQLQLNATESDDGRSFFCSATLEVDGEFLHRNSSVQLRVLYGPKIDRATCPQHLKWKDKTRHVLQCQARGNPYPELRCLKEGSSREVPVGIPFFVNVTHNGTYQCQASSSRGKYTLVVVMDIEAFSSH
modifications: left off: small tags and cut ends
notes: histidine-tagged ICAM-R extracellular region fusion protein
Regarding B2, in experiment [3], the “neutrophil adhesion to immobilized protein” value is given as “Neutrophils adhered to immobilized ICAM-R/His”.

B3: ICAM-2: chimeric ICAM-2/IgG fusion protein (protein)
chain: KVFEVHVRPKKLAVEPKGSLEVNCSTTCNQPEVGGLETSLDKILLDEQAQWKHYLVSNISHDTVLQCHFTCSGKQESMNSNVSVYQPPRQVILTLQPTLVAVGKSFTIECRVPTVEPLDSLTLFLFRGNETLHYETFGKAAPAPQEATATFNSTADREDGHRNFSCLAVLDLMSRGGNIFHKHSAPKMLEIYEPVSDSQ
modifications: left off: a dimerising Fc or GST
notes: chimeric ICAM-2/IgG fusion protein
Consider B3, for which the “neutrophil binding relative to ICAM-1” value in experiment [4] is on record as “approximately 70%”.

The values above are taken from patent US20040248211A1, “ICAM-related protein” (priority 1992, published 2004).
